# From IntAct's records for PubMed 30026314
# B1: Protein Wnt-7a (Homo sapiens), O00755 (parent)
# chain: MNRKARRCLGHLFLSLGMVYLRIGGFSSVVALGASIICNKIPGLAPRQRAICQSRPDAIIVIGEGSQMGLDECQFQFRNGRWNCSALGERTVFGKELKVGSREAAFTYAIIAAGVAHAITAACTQGNLSDCGCDKEKQGQYHRDEGWKWGGCSADIRYGIGFAKVFVDAREIKQNARTLMNLHNNEAGRKILEENMKLECKCHGVSGSCTTKTCWTTLPQFRELGYVLKDKYNEAVHVEPVRASRNKRPTFLKIKKPLSYRKPMDTDLVYIEKSPNYCEEDPVTGSVGTQGRACNKTAPQASGCDLMCCGRGYNTHQYARVWQCNCKFHWCCYVKCNTCSERTEMYTCK
# partner: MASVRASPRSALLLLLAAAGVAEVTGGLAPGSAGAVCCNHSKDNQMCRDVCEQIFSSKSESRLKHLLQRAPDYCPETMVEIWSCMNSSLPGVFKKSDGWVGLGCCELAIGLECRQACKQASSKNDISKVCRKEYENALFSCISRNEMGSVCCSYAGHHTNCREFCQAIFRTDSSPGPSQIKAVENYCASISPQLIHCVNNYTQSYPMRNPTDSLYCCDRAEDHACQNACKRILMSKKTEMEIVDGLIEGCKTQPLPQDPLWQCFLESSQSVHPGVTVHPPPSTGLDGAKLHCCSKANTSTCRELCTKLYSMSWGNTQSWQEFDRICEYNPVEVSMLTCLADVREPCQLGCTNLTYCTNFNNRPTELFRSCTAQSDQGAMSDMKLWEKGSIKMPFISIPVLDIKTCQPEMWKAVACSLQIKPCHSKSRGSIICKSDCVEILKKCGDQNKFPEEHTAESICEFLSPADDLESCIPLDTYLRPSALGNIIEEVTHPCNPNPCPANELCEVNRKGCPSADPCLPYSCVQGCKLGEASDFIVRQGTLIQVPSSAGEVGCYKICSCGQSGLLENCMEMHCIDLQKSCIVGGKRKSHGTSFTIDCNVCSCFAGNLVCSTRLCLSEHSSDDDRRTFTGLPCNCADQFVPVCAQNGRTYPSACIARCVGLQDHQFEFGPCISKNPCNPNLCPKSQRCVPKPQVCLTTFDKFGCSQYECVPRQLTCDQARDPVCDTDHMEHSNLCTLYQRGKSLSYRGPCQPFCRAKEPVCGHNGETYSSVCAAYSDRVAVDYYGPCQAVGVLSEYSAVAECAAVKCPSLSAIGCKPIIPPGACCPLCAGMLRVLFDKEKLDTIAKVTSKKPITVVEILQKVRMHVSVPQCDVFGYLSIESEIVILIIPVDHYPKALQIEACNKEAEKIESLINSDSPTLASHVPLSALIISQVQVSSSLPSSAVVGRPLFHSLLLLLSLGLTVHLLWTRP
# Variants of: B1
# Details: with reck_mouse Reck
row,effect of a mutation on the interaction,Variant
1,disrupting interaction strength,V241A;F251A;L252A;K262A
